Target: GST-tagged PARP1, full-length (human, UniProt P09874 1-1014)
Assay: co-IP

Chain of GST-tagged PARP1, full-length (P09874 whole entry): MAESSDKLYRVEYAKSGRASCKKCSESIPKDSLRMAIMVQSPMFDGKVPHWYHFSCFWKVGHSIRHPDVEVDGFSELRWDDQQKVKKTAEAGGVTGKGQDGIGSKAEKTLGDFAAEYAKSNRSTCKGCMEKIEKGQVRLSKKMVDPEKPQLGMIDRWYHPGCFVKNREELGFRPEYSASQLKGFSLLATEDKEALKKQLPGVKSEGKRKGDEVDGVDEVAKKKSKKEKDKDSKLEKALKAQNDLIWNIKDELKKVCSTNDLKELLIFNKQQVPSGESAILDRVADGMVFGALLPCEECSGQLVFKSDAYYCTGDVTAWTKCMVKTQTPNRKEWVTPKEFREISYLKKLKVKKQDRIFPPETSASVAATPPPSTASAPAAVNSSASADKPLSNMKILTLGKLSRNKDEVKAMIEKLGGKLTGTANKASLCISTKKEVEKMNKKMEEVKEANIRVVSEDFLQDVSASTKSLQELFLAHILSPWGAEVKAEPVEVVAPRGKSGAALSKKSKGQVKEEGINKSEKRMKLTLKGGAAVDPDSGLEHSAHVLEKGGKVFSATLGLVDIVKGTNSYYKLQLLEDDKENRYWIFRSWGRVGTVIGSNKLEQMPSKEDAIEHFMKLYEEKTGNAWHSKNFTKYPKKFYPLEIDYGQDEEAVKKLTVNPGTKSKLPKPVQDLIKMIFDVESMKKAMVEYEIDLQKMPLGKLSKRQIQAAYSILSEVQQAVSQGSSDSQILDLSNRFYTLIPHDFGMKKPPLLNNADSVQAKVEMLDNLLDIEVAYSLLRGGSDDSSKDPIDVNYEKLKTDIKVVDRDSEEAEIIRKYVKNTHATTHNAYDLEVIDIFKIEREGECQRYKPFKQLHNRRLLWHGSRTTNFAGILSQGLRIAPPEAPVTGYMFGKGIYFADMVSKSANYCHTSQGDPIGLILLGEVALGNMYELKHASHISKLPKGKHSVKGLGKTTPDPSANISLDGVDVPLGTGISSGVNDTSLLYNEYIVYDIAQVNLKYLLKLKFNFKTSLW

binding result: binds
B1: MBP-tagged NONO (natural protein, human, UniProt Q15233 1-471, looked up)
chain: MQSNKTFNLEKQNHTPRKHHQHHHQQQHHQQQQQQPPPPPIPANGQQASSQNEGLTIDLKNFRKPGEKTFTQRSRLFVGNLPPDITEEEMRKLFEKYGKAGEVFIHKDKGFGFIRLETRTLAEIAKVELDNMPLRGKQLRVRFACHSASLTVRNLPQYVSNELLEEAFSVFGQVERAVVIVDDRGRPSGKGIVEFSGKPAARKALDRCSEGSFLLTTFPRPVTVEPMDQLDDEEGLPEKLVIKNQQFHKEREQPPRFAQPGSFEYEYAMRWKALIEMEKQQQDQVDRNIKEAREKLEMEMEAARHEHQVMLMRQDLMRRQEELRRMEELHNQEVQKRKQLELRQEEERRRREEEMRRQQEEMMRRQQEGFKGTFPDAREQEIRMGQMAMGGAMGINNRGAMPPAPVPAGTPAPPGPATMMPDGTLGLTPPTTERFGQAATMEGIGAIGGTPPAFNRAAPGAEFAPNKRRRY

Source: PMC11673900 (Journal of Translational Medicine, 2024)
